The values below come from US10947289B2, “Glyco-modified atrial natriuretic peptide” (priority 2013, dated 2021).

Molecules are shown by their SMILES.

The nature of data set [1]: Detection of test substance in rat plasma by LC-MS/MS (Test Example 3). Type of data set: in vivo. Conditions: rat plasma, 100 nmol/kg i.v., LC-MS/MS; time at which the test substance was finally detected. The procedure:
Before the administration and 15, 30, 60, 90, 120, 180, and 240 minutes after the administration, blood was sampled (200 μL/sampling) over time from the jugular vein. The blood samples were immediately left on ice.
The collected blood samples were centrifuged at 5000 rpm at 4° C. for 5 minutes by use of a centrifuge (Sigma 4K15, rotor: Nr12130-H). The separated plasma samples were divided into two types (samples for PK measurement and for cGMP measurement) and stored at −80° C. until measurement.
An internal standard (20 μL (500 nM) of a stable isotope of hANP) and an acetic acid mixed solvent (AcOH/distilled water/DMSO=5/3/2, v/v/v) were added to 50 μL of each rat plasma sample prepared in (1) and then mixed therewith. The mixture was transferred to Amicon Ultra-0.5 50K (Millipore Corp., MA) and centrifuged at 14000 rpm at 15° C. for 30 minutes. The obtained filtrate was transferred to Amicon Ultra-0.5 3K (Millipore Corp., MA) and centrifuged again under the aforementioned conditions. The solution remaining on the filter was recovered and transferred to a 96-well deep well plate. The content of the test substance was measured by LC-MS/MS (LC: Shimadzu LC-10ADVP (Shimadzu Corp.), MS/MS: API 4000 QTrap (AB SCIEX)) to calculate the concentration in plasma. The time at which the test substance was finally detected is shown in the rightmost column of Table 2.

For data set [2], the target named is T1, human GC-A (Homo sapiens, UniProt P16066).
T1 construct: expressed in transfected cells; host or cells: CHO cells
T1 sequence (P16066 33-1061): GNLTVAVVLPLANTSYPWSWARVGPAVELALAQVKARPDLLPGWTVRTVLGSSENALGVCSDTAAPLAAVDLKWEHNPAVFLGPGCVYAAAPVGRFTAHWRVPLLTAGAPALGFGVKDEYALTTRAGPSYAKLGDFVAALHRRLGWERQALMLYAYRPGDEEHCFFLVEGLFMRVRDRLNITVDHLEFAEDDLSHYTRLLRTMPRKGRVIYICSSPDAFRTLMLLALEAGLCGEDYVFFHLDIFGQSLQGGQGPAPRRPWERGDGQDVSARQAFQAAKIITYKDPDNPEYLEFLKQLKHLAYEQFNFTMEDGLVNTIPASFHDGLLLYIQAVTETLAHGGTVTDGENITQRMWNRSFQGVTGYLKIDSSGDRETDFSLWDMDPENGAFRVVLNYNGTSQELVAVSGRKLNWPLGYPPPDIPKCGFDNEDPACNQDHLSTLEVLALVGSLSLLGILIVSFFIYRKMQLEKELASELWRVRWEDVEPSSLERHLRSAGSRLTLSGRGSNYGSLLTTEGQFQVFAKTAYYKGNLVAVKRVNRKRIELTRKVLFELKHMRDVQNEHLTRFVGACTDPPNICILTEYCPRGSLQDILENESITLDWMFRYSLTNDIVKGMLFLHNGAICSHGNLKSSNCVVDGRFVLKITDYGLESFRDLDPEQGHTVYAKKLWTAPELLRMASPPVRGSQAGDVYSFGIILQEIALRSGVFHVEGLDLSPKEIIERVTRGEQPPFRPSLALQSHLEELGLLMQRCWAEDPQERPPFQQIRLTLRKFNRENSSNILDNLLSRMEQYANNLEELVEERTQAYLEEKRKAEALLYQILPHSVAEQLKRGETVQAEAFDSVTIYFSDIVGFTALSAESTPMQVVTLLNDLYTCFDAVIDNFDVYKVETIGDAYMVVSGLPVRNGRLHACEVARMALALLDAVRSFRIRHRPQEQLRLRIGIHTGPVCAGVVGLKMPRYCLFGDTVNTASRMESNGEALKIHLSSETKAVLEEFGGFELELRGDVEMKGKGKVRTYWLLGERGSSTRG
Kind of data set: cGMP elevating activity in CHO/human GC-A cells (Test Example 1). It counts as cell-based. Summed up:
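CHO cells stably expressing human GC-A, pre-incubated 10 min at room temperature in 1.6 mM IBMX/KRB, then exposed to test peptide 15 min in CO2 incubator. Lysate cGMP measured by HTRF. Activity (T/C) scaled so solvent-only = 0 and 1 nM ANP = 1.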

For orientation: EC50 means the concentration that produces a half-maximal response. High values mean weaker potency, low ones greater potency. Take `CC[C@H](C)[C@@H]1NC(=O)[C@H](CCCNC(=N)N)NC(=O)[C@H](CC(=O)O)NC(=O)[C@H](CCSC)NC(=O)[C@H](CCCNC(=N)N)NC(=O)CNC(=O)CNC(=O)[C@H](Cc2ccccc2)NC(=O)[C@@H](NC(=O)[C@H](CO)NC(=O)[C@H](CO)NC(=O)[C@H](CCCNC(=N)N)NC(=O)[C@H](CCCNC(=N)N)NC(=O)[C@H](CC(C)C)NC(=O)[C@H](CO)NC(=O)[C@@H](N)CC(=O)N[C@@H]2O[C@H](CO)[C@@H](O[C@@H]3O[C@H](CO)[C@@H](O[C@@H]4O[C@H](CO[C@H]5O[C@H](CO)[C@@H](O)[C@H](O)[C@@H]5O[C@@H]5O[C@H](CO)[C@@H](O[C@@H]6O[C@H](CO[C@]7(C(=O)O)C[C@H](O)[C@@H](NC(C)=O)[C@H]([C@H](O)[C@H](O)CO)O7)[C@H](O)[C@H](O)[C@H]6O)[C@H](O)[C@H]5NC(C)=O)[C@@H](O)[C@H](O[C@H]5O[C@H](CO)[C@@H](O)[C@H](O)[C@@H]5O[C@@H]5O[C@H](CO)[C@@H](O[C@@H]6O[C@H](CO[C@]7(C(=O)O)C[C@H](O)[C@@H](NC(C)=O)[C@H]([C@H](O)[C@H](O)CO)O7)[C@H](O)[C@H](O)[C@H]6O)[C@H](O)[C@H]5NC(C)=O)[C@@H]4O)[C@H](O)[C@H]3NC(C)=O)[C@H](O)[C@H]2NC(C)=O)CSSC[C@@H](C(=O)N[C@@H](CC(N)=O)C(=O)N[C@@H](CO)C(=O)N[C@@H](Cc2ccccc2)C(=O)N[C@@H](CCCNC(=N)N)C(=O)N[C@@H](Cc2ccc(O)cc2)C(=O)O)NC(=O)CNC(=O)[C@H](CC(C)C)NC(=O)CNC(=O)[C@H](CO)NC(=O)[C@H](CCC(N)=O)NC(=O)[C@H](C)NC(=O)CNC1=O` [Compound 2-3, (SG-)Asn-hANP(1-28)]: the “Maximum time of detection after administration” value (“Maximum time of detection” for short) in data set [1] was found to be 2 h. For the same molecule, the EC50 in data set [2] was 120 pM.

Regarding `CC[C@H](C)[C@@H]1NC(=O)[C@H](CCCNC(=N)N)NC(=O)[C@H](CC(=O)O)NC(=O)[C@H](CCSC)NC(=O)[C@H](CCCNC(=N)N)NC(=O)CNC(=O)CNC(=O)[C@H](Cc2ccccc2)NC(=O)[C@@H](NC(=O)[C@H](CO)NC(=O)[C@H](CO)NC(=O)[C@H](CCCNC(=N)N)NC(=O)[C@H](CCCNC(=N)N)NC(=O)[C@H](CC(C)C)NC(=O)[C@H](CO)NC(=O)CCOCCOCCOCCOCCNC(=O)[C@H](CC(=O)N[C@@H]2O[C@H](CO)[C@@H](O[C@@H]3O[C@H](CO)[C@@H](O[C@@H]4O[C@H](CO[C@H]5O[C@H](CO)[C@@H](O)[C@H](O)[C@@H]5O[C@@H]5O[C@H](CO)[C@@H](O[C@@H]6O[C@H](CO[C@]7(C(=O)O)C[C@H](O)[C@@H](NC(C)=O)[C@H]([C@H](O)[C@H](O)CO)O7)[C@H](O)[C@H](O)[C@H]6O)[C@H](O)[C@H]5NC(C)=O)[C@@H](O)[C@H](O[C@H]5O[C@H](CO)[C@@H](O)[C@H](O)[C@@H]5O[C@@H]5O[C@H](CO)[C@@H](O[C@@H]6O[C@H](CO[C@]7(C(=O)O)C[C@H](O)[C@@H](NC(C)=O)[C@H]([C@H](O)[C@H](O)CO)O7)[C@H](O)[C@H](O)[C@H]6O)[C@H](O)[C@H]5NC(C)=O)[C@@H]4O)[C@H](O)[C@H]3NC(C)=O)[C@H](O)[C@H]2NC(C)=O)NC(=O)CO[C@@H]2O[C@H](CO)[C@@H](O[C@@H]3O[C@H](CO)[C@@H](O[C@@H]4O[C@H](CO[C@H]5O[C@H](CO)[C@@H](O)[C@H](O)[C@@H]5O[C@@H]5O[C@H](CO)[C@@H](O[C@@H]6O[C@H](CO[C@]7(C(=O)O)C[C@H](O)[C@@H](NC(C)=O)[C@H]([C@H](O)[C@H](O)CO)O7)[C@H](O)[C@H](O)[C@H]6O)[C@H](O)[C@H]5NC(C)=O)[C@@H](O)[C@H](O[C@H]5O[C@H](CO)[C@@H](O)[C@H](O)[C@@H]5O[C@@H]5O[C@H](CO)[C@@H](O[C@@H]6O[C@H](CO[C@]7(C(=O)O)C[C@H](O)[C@@H](NC(C)=O)[C@H]([C@H](O)[C@H](O)CO)O7)[C@H](O)[C@H](O)[C@H]6O)[C@H](O)[C@H]5NC(C)=O)[C@@H]4O)[C@H](O)[C@H]3NC(C)=O)[C@H](O)[C@H]2NC(C)=O)CSSC[C@@H](C(=O)N[C@@H](CC(N)=O)C(=O)N[C@@H](CO)C(=O)N[C@@H](Cc2ccccc2)C(=O)N[C@@H](CCCNC(=N)N)C(=O)N[C@@H](Cc2ccc(O)cc2)C(=O)O)NC(=O)CNC(=O)[C@H](CC(C)C)NC(=O)CNC(=O)[C@H](CO)NC(=O)[C@H](CCC(N)=O)NC(=O)[C@H](C)NC(=O)CNC1=O` [Compound 2-13, SG-(SG-)Asn-PEG(3)-hANP(1-28)], the “Maximum time of detection” value in data set [1] is 3 h. Also, in data set [2], the 50% effective concentration (EC50) amounted to 340 pM.

Turning to `CC[C@H](C)[C@@H]1NC(=O)[C@H](CCCNC(=N)N)NC(=O)[C@H](CC(=O)O)NC(=O)[C@H](CCSC)NC(=O)[C@H](CCCNC(=N)N)NC(=O)CNC(=O)CNC(=O)[C@H](Cc2ccccc2)NC(=O)[C@@H](NC(=O)[C@H](CO)NC(=O)[C@H](CO)NC(=O)[C@H](CCCNC(=N)N)NC(=O)[C@H](CCCNC(=N)N)NC(=O)[C@H](CC(C)C)NC(=O)[C@H](CO)NC(=O)CNC(=O)[C@H](CCCCNC(=O)CO[C@@H]2O[C@H](CO)[C@@H](O[C@@H]3O[C@H](CO)[C@@H](O[C@@H]4O[C@H](CO[C@H]5O[C@H](CO)[C@@H](O)[C@H](O)[C@@H]5O[C@@H]5O[C@H](CO)[C@@H](O[C@@H]6O[C@H](CO[C@]7(C(=O)O)C[C@H](O)[C@@H](NC(C)=O)[C@H]([C@H](O)[C@H](O)CO)O7)[C@H](O)[C@H](O)[C@H]6O)[C@H](O)[C@H]5NC(C)=O)[C@@H](O)[C@H](O[C@H]5O[C@H](CO)[C@@H](O)[C@H](O)[C@@H]5O[C@@H]5O[C@H](CO)[C@@H](O[C@@H]6O[C@H](CO[C@]7(C(=O)O)C[C@H](O)[C@@H](NC(C)=O)[C@H]([C@H](O)[C@H](O)CO)O7)[C@H](O)[C@H](O)[C@H]6O)[C@H](O)[C@H]5NC(C)=O)[C@@H]4O)[C@H](O)[C@H]3NC(C)=O)[C@H](O)[C@H]2NC(C)=O)NC(=O)CO[C@@H]2O[C@H](CO)[C@@H](O[C@@H]3O[C@H](CO)[C@@H](O[C@@H]4O[C@H](CO[C@H]5O[C@H](CO)[C@@H](O)[C@H](O)[C@@H]5O[C@@H]5O[C@H](CO)[C@@H](O[C@@H]6O[C@H](CO[C@]7(C(=O)O)C[C@H](O)[C@@H](NC(C)=O)[C@H]([C@H](O)[C@H](O)CO)O7)[C@H](O)[C@H](O)[C@H]6O)[C@H](O)[C@H]5NC(C)=O)[C@@H](O)[C@H](O[C@H]5O[C@H](CO)[C@@H](O)[C@H](O)[C@@H]5O[C@@H]5O[C@H](CO)[C@@H](O[C@@H]6O[C@H](CO[C@]7(C(=O)O)C[C@H](O)[C@@H](NC(C)=O)[C@H]([C@H](O)[C@H](O)CO)O7)[C@H](O)[C@H](O)[C@H]6O)[C@H](O)[C@H]5NC(C)=O)[C@@H]4O)[C@H](O)[C@H]3NC(C)=O)[C@H](O)[C@H]2NC(C)=O)CSSC[C@@H](C(=O)N[C@@H](CC(N)=O)C(=O)N[C@@H](CO)C(=O)N[C@@H](Cc2ccccc2)C(=O)N[C@@H](CCCNC(=N)N)C(=O)N[C@@H](Cc2ccc(O)cc2)C(=O)O)NC(=O)CNC(=O)[C@H](CC(C)C)NC(=O)CNC(=O)[C@H](CO)NC(=O)[C@H](CCC(N)=O)NC(=O)[C@H](C)NC(=O)CNC1=O` [Compound 2-14, SG-(SG-)Lys-Gly-hANP(1-28)], in data set [1], the “Maximum time of detection” value turned out to be 1.5 h. A half-maximal effect in data set [2] (EC50) was put at 600 pM.
